Here are results for 14 sequences from the DeepSol protein solubility set.

This data set is described as follows: soluble on expression in E. coli; label from the status in PepcDB or PDB records.
In the case of “MSKSESPKEPEQLRKLFIGGLSFETTDESLRSHFEQWGTLTDCVVMRDPNTKRSRGFGFVTYATVEEVDAAMNARPHKVDGRVVEPKRAVSREDSQRPGAHLTVKKIFVGGIKEDTEEHHLRDYFEQYGKIEVIEIMTDRGSGKKRGFAFVTFDDHDSVDKIVIQKYHTVNGHNCEVRKALSKQEMASASSSQRGR”, the “soluble on expression in E. coli” value was “soluble”.

Take “MSKSPDAFRTISEVAEWLGVQAHVLRFWESKFNQVKPVKRAGGRRYYRPADMQLLGGIKKLLHDDGMTIKGVQKLLREQGVAHVAEQSQD”: the “soluble on expression in E. coli” value was “not soluble”.

As to “MSKVKTRFAPSPTGYLHLGNARTAIFSYLFARHNNGGFVLRIEDTDPERSKKEYEEMLIEDLKWLGIDWDEFYRQSERFDIYREYVNKLLESGHAYPCFCTPEELEKEREEARKKGIPYRYSGKCRHLTPEEVEKFKKEGKPFAIRFKVPENRTVVFEDLIKGHIAINTDDFGDFVIVRSDGSPTYNFVVVVDDALMGITHVIRGEDHIPNTPKQILIYEALGFPVPKFAHLPVILGEDRSKLSKRHGAVSVRAYREEGYMPEALFNYLCLLGWSPPEEGREIFSKEELIKIFDLKDVNDSPAVFNKEKLKWMNGVYIREVLPLDVLLERAIPFLEKAGYDTSDREYIKKVLEYTRDSFDTLSEMVDRLRPFFVDEFEIPEELWSFLDDEKAYQVLSAFLEKIREKKPETPQEVKKLAKEIQKALKVKPPQVWKPLRIALTGELEGVGIDILIAVLPKEKIEKRILRVLEKLS”, the “soluble on expression in E. coli” value is “soluble”.

For the sequence “MSLADRLTIGEFSRITHLSIRMLRRYHEQDLLVPAEVDPDTGYRYYSPAQIRPALTVRRFRDLDLPLADLRRFLAAESADGPDDGTAQQVVAAHLRRLEDRLGRTQRAVEVLRELLDPEAERAVTLEELPARRVLAVTLDVPEGAGLDWYDEAMCDVDSAAGERSVLPPGGRYEHTLFTEGHGRATVYVPFEAPLPPEMPGRVRELHLPRRTAAVATHQGRHDDLDLTYGAVGSFAARNDLRSQDLVEEVYLVGPRDTDRPELWRTLVAWLIAPENEGHHHHHH”, the “soluble on expression in E. coli” value is listed as “soluble”.

As to “MSLAESAFSERIVQNLLDTDFYKLTMMQAVLHNYPNAEVEWEFRCRNQEDLRLYLPAIREQLEYLAGLAISDEQLAFLERIPFLAPDFIRFLGLFRFNPRYVQTGIENDEFFLRLKGPWLHVILFEVPLLAMISEVRNRARYPAATVEQARERLQEKFDWLRREASAEELAGFKMADFGTRRRFSYRVHEAVVSGLKEDFPGCFVGTSNVHLARKLDLKPLGTMAHEWLMAHQQLGPRLIDSQSAALDCWVREYRGLLGIALTDCITTDAFLRDFDLYFAKLFDGLRHDSGDPLLWAEKTIAHYLKLGIDPLTKTLVFSDGLDLPRALKIYRALQGRINVSFGIGTHFTCDLPGVEPMNIVVKMSACNGHPVAKISDTPGKAQCRDPDFIHYLKHVFQVAEGHHHHHH”, the “soluble on expression in E. coli” value is “soluble”.

As for “MSLAEVTVVNFGGANGDAQKAAFNKPFEAQTGNKVTAVEYNGEQAKIKAMVEAKHVNWDVVEVESGDIGRGCDEGLFEKLDWSKIAKKADLVPEAPHTCGVGFFVWSTALAYNADKLKAAPSGWADFWDVKKFPGKRGMRKGARYNLEFALMADGVPVKDVYKVLATKDGQNRAFKKLDQLKPYIQWWEAGAQPPQFLVAGDVVMSTAFNGRIDAAQREGKNLKVVWNGSIYDLDYWAIPKGTPNKALAEQYIAYTLSQKAQQEYAKHIAYGPANLAAIKALDAKTQANLPNSPENGKSAVLQNLQFWTDHGDELEQRFASWASKEGHHHHHH”, the “soluble on expression in E. coli” value is reported as “soluble”.

“MSLAFGLDKLVDLLKAAGEPTRFRLLALLSAGDLTVTDLTEILGQSQPRISRHLKLLTEEGLIERYQEGAWAYFRLRQDGEPAVVVRQLLGAASPSDAVLQRDSERLATVKRVRAERAQDYFSRNASAWDELRRLHVSDEAVEGALLKLVGTTPIDSLLDLGTGTGRILQLLSGIYRRAIGVDASRDMLSVARANLDKAGVGNASVRHGDILNLPLEGQDFDLIVIHQVLHFLDQPEIALSEAARMLRPGGRLIVIDLAPHSFEYLRDEHAHVRLGFSHPLMEEWMKKAGLSLERAVDLHSEKASDEALDVTIWVARDQRLLMADDVVQEAVLLRSGRAEGHHHHHH”: the “soluble on expression in E. coli” value was “soluble”.

Take “MSLAIGDILRKSARRFPDRVALTDGGRSVTYTELERDANRFANALVARGLKPGAKISTVCNNSIEFVKALFGIHRAGLVWVPINTMLGPDDMGYILDHAGVKVAVIDDNLHGQPERRAALEARGIDLIAINLAGKAADTGLPVFDQLIEGLSEIEPDVAFDDRDLAMIIYTSGTTSRPKGAMHCHLAVTMAVMSNAIEMQLSRKDGITGQFPLFHCAAHVLLLSYLIVGGQMAIMRGFDPVACMEAIQRNKLTVFIGLPLMYQVILDHPRRKEFDLSSLRCCIYTMAPMPRPLLERAIAELCPTFVQPSGQTEMYPATTMSQPDRQLARFGNYWGESTLVNETAIMDDAGNLLPPGEVGEIVHRGPNVMLGYYKDPEATEAARKFGWHHTGDLALIDEHGEVLFLDRKKDMIKSGGENVASIKIEETLLAHPSVMNAAVVGLPHPQWGEAVSGFVKLKPGASATEAEIVEHCKKHLGGFQVPKLLRIVDEMPMTATGKLRKVELRNQFTDHFMLGQTEGHHHHHH”: the “soluble on expression in E. coli” value is reported as “soluble”.

For the sequence “MSLAIGRILIIDDENINAETMMDTLEDVNYHVVLAANANQAKTIVEDQIFDLVMMDVWMPAQDGMSLLEEWTQSGFSTPIVMMSGHAEHQDVVKAIKLGAVDFLEKPLHDILPLVRKILSEQVLEKSEHTINGIEFNAPLKEARNIFEVQYFNHHLQENKHNIAKVAILAGLERTTLYRKLKDLGIDKEGHHHHHH”, the “soluble on expression in E. coli” value is on record as “soluble”.

On to “MSLAILIKNRIGKGYPIYTSTVLNEKLSDEGNLTFDILENENTYDLISAVSKMWTVHNVAGPDDKRVFVITIIDRQSRGEKQYVSITARQKEIDDLMTQRIYSNVTGSFTVENYFKIVFQGSGYKYKIPIKVPSSRWENAGDGDSRYEMFKNGLERYDLEYTYDPSNKTFTLEPFVEKKTSYYISSKVNANNLKLEEDASECYTYIRGYGGFEEDESFMQGSVQVEFTHPLAKVIGKREAPPKIDGRITNIETMKREIEAIIAQSLKTSLSLDFVALREVFPSAVPRIGDLVPVRDDIIDINDSVRIIEIKTTRDAHNKIIKQDVVLGDIRRRDRYTKSVNNAATLASGLGGGSEGHHHHHH”, for which the “soluble on expression in E. coli” value is given as “soluble”.

Take “MSLAITTSPPTVSDTKRIFYANYKKLLLPLYNTPIQNMLVKQHIHRYNKNYTYSDVSALGIVTTLDSVLNTFPDDEKTSIKNAFIISLNEDPEMYYSNIESLKPYAKSSHLGPNKHGNTLQKSLYDIAINDKYVYSSFAAVGIFKLLQMNGNYTGNSVKHLSESIGFKGELVHKDIATFFSLLKYIESSQKLADDIREESLKREGHHHHHH”: the “soluble on expression in E. coli” value is recorded as “soluble”.

Regarding “MSLALIVQKFGGTSVGTVERIEQVAEKVKKFREAGDDVVVVVSAMSGETNRLIGLANQIMEQPVPRELDVMVSTGEQVTIALLSMALIKRGVPAVSYTGNQVRILTDSAHTKARILHIDDTHIRADLKAGRVVVVAGFQGVDGNGNITTLGRGGSDTTGVALAAALKADECQIYTDVDGVYTTDPRVVPQARRLDKITFEEMLEMASLGSKVLQIRAVEFAGKYNVPLRVLHSFQEGPGTLITIDDEEESMEQPIISGIAFNRDEAKLTIRGVPDTPGVAFKILGPISAANVEVDMIVQNVAHDNTTDFTFTVHRNDYLNALEILKQTAANIGAREAIGDTNIAKVSIVGVGMRSHAGVASRMFEALAKESINIQMISTSEIKVSVVIEEKYLELAVRALHTAFELDAPARQGEEGHHHHHH”, the “soluble on expression in E. coli” value was “soluble”.

As to “MSLANKPLAKALETISGIPITPFRKSDGSIDWHHYKETVDRIVDNGIDVIVPCGNTSEFYALSLEEAKEEVRRTVEYVHGRALVVAGIGYATSTAIELGNAAKAAGADAVMIHMPIHPYVTAGGVYAYFRDIIEALDFPSLVYFKDPEISDRVLVDLAPLQNLVGVKYAINDLPRFAKVVRSIPEEHQIAWICGTAEKWAPFFWHAGAKGFTSGLVNLLPQKAVEMLEALRNNDNDAVWRIWEDIVPFEDLRGKYNQGNNVVVIKEAMEMLRQNAGVTRAPVNELSNEDKQLVTELLSSWKLLQPTKGEGHHHHHH”, the “soluble on expression in E. coli” value is “soluble”.

In the case of “MSLANWVASSTVTADGHHLLGNPAAKLRLVEFVSYTCPHCSHFEIESEGQLKIGMVQPGKGAIEVRNFVRDPIDMTVALITNCVPPSRFFTLHTAFMRSQAQWIGPLANSTEAQRQRWFNGTFATRTRAIASDFRFYDFMAARGMDRSTLDRCLSNEALAKKLAAETDEAINQYNVSGTPSFMIDGILLAGTHDWASLRPQILARLNEGHHHHHH”, the “soluble on expression in E. coli” value is recorded as “soluble”.
